Reference: US20180334496A1 (KODIAK SCIENCES, published 2018)
Numbering of substitutions follows the chain as printed.

B1: KCD001 (antibody, V domains shown)
VH: EVQLQQSGPELVKPGASVKISCKASDNSFTGYYMHWVKQSHGNILDWIGYIDPYNGVSSYNQKFKGKATLTVDKSSSTAYMEIRSLTSEDSAVYYCASYYGSSPYWYFDVWGTGTTVTVSS
VL: QIVLSQSPAILSASPGEKVTMTCRASSSVSYMHWYQQKPGSSPKPWIYATSNLASGVPARFSGSGSGTSHFLTISRLEAEDAATYFCQQWSSNPYTFGGGTKLEIK
B2: KCD022 (antibody, V domains shown)
VH: DVQLQESGPDLVKPSQSLSLTCTVTGYSITSGYSWHWIRQFPGNTLEWMGYIHYSGSTNYNPSLESRISFTRDTSKNQFFLQLNSVTTEDTATYYCALHFYGYNLGWYFDVWGAGTTVTVSS
VL: DIVMTQSHKFMSTSIGDRVIITCKASQDVGTTVAWYQQRPGQSPKLLIYWASTRHTAVPDRFTGSGSGTDFTLTISNVQSEDLADYFCQQYTSYPLTFGAGTQLELK
B3: KCD128 (antibody, V domains shown)
VH: QVQLQQPGAELVRPESSVKLSCKASGYTFTSYWMDWVMQRPGQGLEWIGNIYPSGSETHYNQKFKDKATLTVDKSSTTAYMQLSSLTFEDSAVYYCARSGFIGSRYLYYFDYWGQGTTLTVSS
VL: DIVMTQSHKFMSTSVGDRVTITCKASQDVSNAVAWYQLKPGQSPKLLIYSASYRYTGVPDRFTGSGSGTDFTFTISSVQAADLAVYYCQQHYITPYTFGGGTKLEIK
B4: KCD137 (antibody, V domains shown)
VH: EVQLVESGGDLVKPGGSLKLSCAASGFTFSGYGMSWVRQIPDKRLEWVAISSRDNSFTYYPDSVKGRFTISRDNAKNTLYLQMSSLKSEDTALYFCTRHPYLPTGGYVMDYWGQGTSVTVSS
VL: B2 VL with I15V, I20S, T32A, A57G, I75V, Q103K
B5: KCD230 (antibody, V domains shown)
VH: QVQLQQPGTELVKPGASVKLPCKASGYTFTSYWMQWVKQRPGQGLEWIGEIDPSDTYINYNQKFKGKATLTVDTSSTTAYMQLSSLTSEDSAVYYCARYTTIMASDYWGQGTTLTVSS
VL: DIQMTQTTSSLSVSLGDRVTISCRASQDITNYLNWYQQKPDGTVKLLIYFTSRLHSGVPSRFSGSGSGTDYSLTISNLEPEDIATYYCQQYSKLPWTFGGGTKLEIK
B6: KCD013 (antibody, V domains shown)
VH: EVQLQQSGAELVKPGASVKLSCTASGFKIKDTYMHWVKERPDQGLEWIGRIDPANGNTKYDPKFQGKATITADTSSNTAYLQLSSLTSEDTAVYYCANAMDYWGQGTSVTVSS
VL: QIILTQSPAIMSASPGEKVTMTCSASSSVSNMYWYQQKPGSSPRLLIYDTSNLASGVPVRFSGSGSGASYSLTISRMEAEDAATYYCQQWSSYPWTFGGGTKLEIK
B7: KCD139 (antibody, V domains shown)
VH: EVQLQQSGAELVRPGSSVKMSCKTSGYTFTSYGINWVKQRPGQGLEWIGYIYIANGYTENNEKFKGKAKLTSDISSSTAYMQLSSLTSEDSAIYFCARRFDYAGALDYWGQGTSVTVSS
VL: DIVLTQSPASLAVSLGQRATISCRASESVDSYGNSFMHWYQQKPGQPPKLLIHRASNLESGIPARFSGSGSRTDFTLTINPVEADDVAIYYCQQTNDDPYTFGGGTNLEIK
B8: KCD219 (antibody, V domains shown)
VH: QVQLQQSGPELVKPGASVKISCKASGYTFTDYYINWVKQRPGQGLEWIGWIFPGSGSTYYNEKFKGKATLTVDKSSSTAYMLLSSLPSEDSAVYFCARYGYYGSSFYAMDYWGQGTSVTVSS
VL: DIQMTQSPASLSVSVGETVTITCRASENIYSNLAWYQQKQGKSPQLLVYAATNLADGVPSRFSGSGSGTQYSLKINSLQSEDFGSYYCQHFWGSPPTFGGGTKLEIK
B9: KCD033 (antibody, V domains shown)
VH: EVQLQQSGPELVKPGASMKISCTASGYSFTGYTMTWVKQSHGKNLEWIGLINPYNGGTNYNQKFKGKATLTVDKSSSIAYMELLSLTSEDSAVYYCARRHYGSNWDYWGQGTTLTVSS
VL: DIKLTQSPSSIYTSLGERVTITCKASQDINTYLSWFQQRPGKSPKTLIYRADRLVDGVPSRVRGSGSGQDYSLTISSLEYEDMGIYYCLQYDEFPYTFGGGTKLEIK
B10: KCD036 (antibody, V domains shown)
VH: B9 VH with T23K, L70F, I78T, N104S
VL: B9 VL with I11M, T13A, R39K, D52N, V62F, R63S, D82E
notes: chimeric
B11: KCD062 (antibody, V domains shown)
VH: EVKLVESGGGLVQPGGSLKLSCAASGFTFSTYIMSWVRQTPEKRLEWVAYITSGGSSTYYPDTVKGRFTISRDNAKSTLYLQMSSLKSEDTAMYYCARHAHFYAMDYWGQGTSVTVSS
VL: DIQMTQSPSSLSASLGGKVTITCKASQDINKYIAWYQHKPGKGPRLLIHYTSTLQPGIPSRFSGSGSGRDYSFSISNLEPEDIATYYCLQYDNLLYTFGGGTKLEIK
B12: KCD064 (antibody, V domains shown)
VH: B11 VH with T31S, E46G, S56G, S77N, A100G, H101T, F102G
VL: B11 VL with K103E
B13: KCD075 (antibody, V domains shown)
VH: QVQLLQPGAELVRPGTSVKLSCKASGYTFSNYWINWVKQRPGQGLEWIGNIYPSDSSINYNQKFKDKATLTVDKSSTTAYMQLSSPTSEDSAVYYCTGTDWYFDVWGAGTTVTVSS
VL: DIQMTQTTSSLSASLGDRVTISCSGGQGISNYLNWYQQKPDGTFKLLIYYTSTLHSGVPSRFSGSGSGTDYSLTISNLEPEDVATYYCQQYSKLPYTFGGGTKLEIK
B14: KCD110 (antibody, V domains shown)
VH: B1 VH with D26G, N27Y, Y54D, Y60K, K65T, L70V, V72A, I83L, S98G, P104W
VL: B1 VL with H70Y, F71S, L77V, F86Y
B15: KCD015 (antibody, V domains shown)
VH: EVQLQQSGAELVKPGASVKLSCTASGFNIKDTYMHWVKQRPEQGLEWIGRIDPANGYTEYDPKFQGKATITADTSSNTAYLQLSSLTSEDSAAYYCTSAMEFWGQGTSVTVSS
VL: B6 VL with I3V, M11L, N31Y, M32I, G40R, A68T, W95F, I105V
B16: KCD132 (antibody, V domains shown)
VH: QVQLQQSGPELVKPGASVKISCKASGYSFTDYYINWVKQRPGQGLEWIGWIFPGSGSTYYNEKFKGKATLTVDKSSSTAYMLLSSLTSEDSAVYFCARTGYYSNLYAVDYWGQGTSVTVSS
VL: B8 VL with A50V, S85N, S94T, P96Y, I106M, K107R
B17: KCD017 (antibody, V domains shown)
VH: DVQLQESGPDLVKPSQSLSLTCTVTDYSITSGYSWHWIRQFPGNKLEWLGYIHSSGNTNYNPSLKSRFSITRDTSKNQFFLQLNSVTSEDTATYYCALHYYGSSFGWYFDVWGAGTTVTVSS
VL: B2 VL with I15V, I20Y, T32A, R39T, P40S, A57G, I75L, Q103K
B18: KCD038 (antibody, V domains shown)
VH: EVQLQQSGPELVKPGTSMKISCKASGYSFADYTMNWVKQSHGKSLEWIGLINPYNGGTSYNQKFMGKATLTVDKSSSTAYMELLSLTSEDSAVYYCARWGTYSHNYDYAMDYWGQGTSVTVSS
VL: DVVMTQTPLSLPVSLGDQASISCRSSQSLVHSNGNTYLYWYFQKPGQSPKFLIYKVSNRFSGISDRFSGSGSGTDFTLKISRVEAEDLGVYFCSQSTHVPPFTFGSGTKLEIK
B19: KCD039 (antibody, V domains shown)
VH: B18 VH with L11M, T16A, M34L, A97T
VL: B18 VL with P12S, F42L, F51L, S64T
B20: KCD050 (antibody, V domains shown)
VH: QVQLKESGPGLVAPSQSLSITCTVSGFSLNSYGVQWVRQPPGQGLEWLVVIWRDGTITYNSALKSRLSINKDNSKSQVFLKMNSLQTDDTAMYYCGRTSHYGNFNYYVMDYWGQGTAVTVSS
VL: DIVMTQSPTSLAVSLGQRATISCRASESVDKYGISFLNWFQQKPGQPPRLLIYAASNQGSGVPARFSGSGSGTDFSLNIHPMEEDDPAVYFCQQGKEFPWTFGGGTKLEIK
B21: KCD052 (antibody, V domains shown)
VH: B20 VH with V49G, T56S, N70R, F104Y
VL: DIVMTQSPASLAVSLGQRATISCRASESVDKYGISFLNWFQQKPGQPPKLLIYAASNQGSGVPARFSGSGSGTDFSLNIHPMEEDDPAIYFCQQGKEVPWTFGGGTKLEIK

Biological target: T1, recombinant human CFD mutant 1 (R157A, R207A), His-tagged (human, UniProt P00746 26-253)
T1 construct: positions are linear positions in the mature protein; also called rhCFD-mut1-His; Mut1
Assay: SPR MX96

T1 sequence (P00746 26-253 R182A/R232A limits assumed): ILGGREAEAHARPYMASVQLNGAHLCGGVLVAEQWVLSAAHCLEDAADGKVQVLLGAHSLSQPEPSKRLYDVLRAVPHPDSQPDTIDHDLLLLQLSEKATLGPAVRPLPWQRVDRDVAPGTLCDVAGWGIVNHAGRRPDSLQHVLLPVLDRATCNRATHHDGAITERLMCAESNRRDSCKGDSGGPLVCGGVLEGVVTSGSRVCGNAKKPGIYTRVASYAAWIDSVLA

Binder | Kd [nM]
B1 | 0.19
B2 | 110
B3 | 13
B4 | 4.6
B5 | 0.88
B6 | 19
B7 | 3.5
B8 | 3.6
B9 | 28
B10 | 80
B11 | 62
B12 | 37
B13 | 3.4
B14 | 4.1
B15 | 3.7
B16 | 1.4
B17 | 10
B18 | 84
B19 | 70
B20 | 1.9
B21 | 2.5

Biological target: T2, recombinant cynomolgus CFD, His-tagged (cynomolgus)
T2 construct: also called rcyCFD-His; recombinant Cyno-CFD
Assay: SPR MX96

Binder | Kd [nM]
B1 | 0.63
B2 | 54
B3 | 3.3
B4 | 5.9
B5 | 2.7
B6 | 93
B7 | 3.8
B8 | 12
B9 | 93
B10 | 64
B11 | 19
B12 | 15
B13 | 3.2
B14 | 5.3
B15 | 250
B16 | 8
B17 | 11
B18 | 45
B19 | 39
B20 | 8.2
B21 | 10

Biological target: T3, human complement factor D purified from serum (human, UniProt P00746 26-253)
T3 construct: serum-purified (CompTech); also called hCFD-Comptech; CFD
Assay: SPR MX96

T3 sequence (P00746 26-253): as the sequence (P00746 26-253 R182A/R232A limits assumed) above, with A157R, A207R counted along it

Binder | Kd [nM]
B1 | 0.22
B2 | 57
B3 | 14
B4 | 0.5
B5 | 2.5
B6 | 7.3
B7 | 5.3
B8 | 4.3
B9 | 11
B10 | 26
B11 | 24
B12 | 20
B13 | 3.7
B14 | 3.7
B15 | 6.2
B16 | 2.6
B17 | 7.8
B18 | 37
B19 | 53
B20 | 2
B21 | 3.1

Biological target: T4, recombinant human CFD, His-tagged (human, UniProt P00746 26-253)
T4 construct: also called rhCFD-His
Assay: SPR MX96

T4 sequence (P00746 26-253 limits assumed): as the sequence (P00746 26-253 R182A/R232A limits assumed) above, with A157R, A207R counted along it

Binder | Kd [nM]
B1 | 0.22
B2 | 83
B3 | 14
B4 | 5.5
B5 | 1.6
B6 | 11
B7 | 3.3
B8 | 3
B9 | 19
B10 | 29
B11 | 32
B12 | 20
B13 | 2.5
B14 | 2
B15 | 4.5
B16 | 1.6
B17 | 13
B18 | 48
B19 | 43
B20 | 3.1
B21 | 3.7
